Literature values in PMC8694941 (RSC Advances, 2021).

Details: commonly used comparator tracer

[^68Ga]Ga-DOTA-c(RGDfK) (head to tail)
partition coefficient (log D): around −3.43
